Results published in the RNAGym collection of RNA variant scans (doi:10.1093/molbev/msab373).

B1: Azoarcus group I ribozyme (parent)
chain: GUGCCUUGCGCCGGGAAACCACGCAAGGGAUGGUGUCAAAUUCGGCGAAACCUAAGCGCCCGCCCGGGCGUAUGGCAACGCCGAGCCAAGCUUCGGCGCCUGCGCCGAUGAAGGUGUAGAGACUAGACGGCACCCACCUAAGGCAAACGCUAUGGUGAAGGCAUAGUCCAGGGAGUGGCGAAAGUCACACAAACCGG

Variants of: B1
Experiment: reverse-splicing fitness (ratio to wild type); higher = more active; in vitro selection; Mg2+ level not given
Method in brief: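 An in vitro group I ribozyme library with randomized positions was T7-transcribed and gel-purified. In triplicate, 10 pmol RNA in EPPS pH 7.5 was reacted with 50 pmoles of a 30-nt RNA substrate for 1 h at 37 °C across several added MgCl2 levels (1–48 mM), then stopped with EDTA. Products were reverse transcribed from a substrate-complementary primer, PCR-amplified and sequenced (HiSeq 4000). Fitness is a variant's read proportion after selection over that before, normalised to wild type.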

Row | Variant | reverse-splicing fitness
1 | A111C A120C A145U C150U C169A U176G | 0.00715
2 | A111C A120C A145U C150U C169A U176C | 0.00838
3 | A111C A120C A145U C150U C169A U176A | 0.012
4 | A111C A120C C150U C169A | 0.0123
5 | A111C A120C C150U C169G | 0.00843
6 | A111C A120C C150U C169U | 0.113
7 | C82U C150A U176A | 0.0603
8 | C82U C150A U176C | 0.0779
9 | C82U C150A U176G | 0.0218
10 | A111C A120C A145C C169G U176C | 0.0167
11 | A111C A120C A145C C169G U176A | 0.0217
12 | A111C A120C A145C C169G U176G | 0.00634
13 | A111C A120C A145G C150G C169G U176C | 0.0119
14 | A111C A120C A145G C150G C169G U176A | 0.0102
15 | A111C A120C A145G C150G C169G U176G | 0.00553
16 | A111C A120C A145U C150U C169A | 0.0112
17 | A111C A120C A145U C150U C169G | 0.00917
18 | A111C A120C A145U C150U C169U | 0.125
19 | A111C A120C A145C C150G C169A | 0.00813
20 | A111C A120C A145C C150G C169G | 0.0064
21 | A111C A120C A145C C150G C169U | 0.0267

Row | Variant | reverse-splicing fitness
22 | C82U U176G | 0.126
23 | C82U U176C | 0.476
24 | C82U U176A | 0.386
25 | C82U C150G C169G U176C | 0.0054
26 | C82U C150G C169G U176A | 0.00631
27 | C82U C150G C169G U176G | 0.00464
28 | A111C A120C A145C C150U C169G U176A | 0.0202
29 | A111C A120C A145C C150U C169G U176C | 0.0118
30 | A111C A120C A145C C150U C169G U176G | 0.00592
31 | A111C A120C A145C C150U U176A | 0.069
32 | A111C A120C A145C C150U U176G | 0.0168
33 | A111C A120C A145C C150U U176C | 0.0914
34 | A111C A120C A145C C150G C169G U176G | 0.00522
35 | A111C A120C A145C C150G C169G U176A | 0.00861
36 | A111C A120C A145C C150G C169G U176C | 0.00939
37 | A111C A120C C150U C169U U176A | 0.0275
38 | A111C A120C C150U C169U U176C | 0.0327
39 | A111C A120C C150U C169U U176G | 0.0066
40 | A111C A120G A145C C150A C169G U176A | 0.024
41 | A111C A120C A145G C150A U176A | 0.0428
42 | A111C A120C A145G C150A U176G | 0.0143

Row | Variant | reverse-splicing fitness
43 | A111C A120C A145G C150A U176C | 0.0663
44 | C82U C150G C169U U176A | 0.0076
45 | C82U C150G C169U U176G | 0.0055
46 | C82U C150G C169U U176C | 0.01
47 | A111C A120C A145G C169U | 0.184
48 | A111C A120C A145G C169G | 0.0102
49 | A111C A120C A145G C169A | 0.0109
50 | A111C A120C C150U U176C | 0.153
51 | A111C A120C C150U U176A | 0.128
52 | A111C A120C C150U U176G | 0.0275
53 | A111C A120C A145C C169A U176C | 0.00756
54 | A111C A120C A145C C169A U176G | 0.00493
55 | A111C A120C A145C C169A U176A | 0.0126
56 | C82U C169A | 0.00905
57 | C82U C169G | 0.00984
58 | C82U C169U | 0.0149
59 | A111C A120C | 0.576
60 | A111C A120G | 0.185
61 | A111C A120C A145U C150G U176G | 0.00607
62 | A111C A120C A145U C150G U176C | 0.034
63 | A111C A120C A145U C150G U176A | 0.0202

Row | Variant | reverse-splicing fitness
64 | A111C A120C U176A | 0.186
65 | A111C A120C U176G | 0.0393
66 | A111C A120C U176C | 0.204
67 | C82U C150A C169A U176A | 0.019
68 | C82U C150A C169A U176C | 0.0149
69 | C82U C150A C169A U176G | 0.00489
70 | A111C A120G A145C C150A C169A | 0.0103
71 | A111C A120G A145C C150A C169G | 0.0149
72 | A111C A120C A145U C150U U176C | 0.174
73 | A111C A120C A145U C150U U176A | 0.146
74 | A111C A120C A145U C150U U176G | 0.0336
75 | A111C A120C A145C C150A C169A U176G | 0.00655
76 | A111C A120C A145C C150A C169A U176A | 0.0152
77 | A111C A120C A145C C150A C169A U176C | 0.00638
78 | A111C A120C A145U C150G C169G | 0.00671
79 | A111C A120C A145U C150G C169A | 0.00797
80 | A111C A120C A145U C150G C169U | 0.0234
81 | A111C A120C A145G C150U C169U U176C | 0.0438
82 | A111C A120C A145G C150U C169U U176A | 0.0283
83 | A111C A120C A145G C150U C169U U176G | 0.00486
